Assay [1] deals with T1, Pih1/Nop17, full length, untagged, recombinant (monomeric species) (S. cerevisiae, UniProt P38768 1-344).
T1 sequence: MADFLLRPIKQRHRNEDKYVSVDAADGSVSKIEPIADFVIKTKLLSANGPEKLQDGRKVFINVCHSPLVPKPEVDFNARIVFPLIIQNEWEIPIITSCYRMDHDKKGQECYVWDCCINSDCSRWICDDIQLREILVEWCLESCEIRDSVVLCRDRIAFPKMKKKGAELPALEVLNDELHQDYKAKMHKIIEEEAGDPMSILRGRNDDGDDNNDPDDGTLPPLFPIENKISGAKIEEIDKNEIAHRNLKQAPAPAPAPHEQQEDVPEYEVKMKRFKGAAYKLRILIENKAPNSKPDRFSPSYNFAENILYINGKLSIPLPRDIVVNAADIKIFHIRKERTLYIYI
The assay can be described thus: pull-down.

The target of assay [2] is Hsp82-MC (residues 260-709) (S. cerevisiae, UniProt P02829 260-709). The assay can be described thus: pull-down.
The target of another assay is Rvb2, recombinant (S. cerevisiae, UniProt Q12464 1-471). The assay can be described thus: SEC. Background: SEC sorts molecules by how far they enter the pores of the column.
Rvb2, recombinant, sequence (Q12464 whole entry): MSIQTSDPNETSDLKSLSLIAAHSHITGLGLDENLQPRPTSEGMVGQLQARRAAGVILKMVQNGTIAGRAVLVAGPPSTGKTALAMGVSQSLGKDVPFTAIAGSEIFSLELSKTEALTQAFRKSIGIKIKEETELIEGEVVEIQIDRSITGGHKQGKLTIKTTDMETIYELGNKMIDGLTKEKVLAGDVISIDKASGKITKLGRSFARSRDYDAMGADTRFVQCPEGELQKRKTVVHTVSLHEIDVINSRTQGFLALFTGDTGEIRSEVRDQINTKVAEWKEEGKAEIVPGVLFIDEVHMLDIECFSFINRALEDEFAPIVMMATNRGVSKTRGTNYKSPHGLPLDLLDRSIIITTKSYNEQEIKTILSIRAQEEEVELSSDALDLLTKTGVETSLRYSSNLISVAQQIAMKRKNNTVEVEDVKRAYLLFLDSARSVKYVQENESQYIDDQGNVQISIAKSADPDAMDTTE

Hsp82-MC (residues 260-709), sequence (P02829 260-709): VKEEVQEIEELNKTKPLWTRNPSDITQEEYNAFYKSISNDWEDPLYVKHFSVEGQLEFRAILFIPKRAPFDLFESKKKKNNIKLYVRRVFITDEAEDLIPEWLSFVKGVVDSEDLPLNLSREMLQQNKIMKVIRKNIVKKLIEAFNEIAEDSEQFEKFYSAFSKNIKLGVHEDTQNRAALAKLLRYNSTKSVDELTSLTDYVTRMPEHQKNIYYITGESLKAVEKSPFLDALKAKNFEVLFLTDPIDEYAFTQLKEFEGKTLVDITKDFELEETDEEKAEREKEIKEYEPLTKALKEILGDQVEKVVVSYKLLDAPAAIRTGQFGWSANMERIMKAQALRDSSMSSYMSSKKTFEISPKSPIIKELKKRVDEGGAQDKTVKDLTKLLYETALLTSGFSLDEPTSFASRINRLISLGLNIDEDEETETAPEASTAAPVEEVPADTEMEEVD

B1: Tah1, full length, recombinant (natural protein)
chain: MSQFEKQKEQGNSLFKQGLYREAVHCYDQLITAQPQNPVGYSNKAMALIKLGEYTQAIQMCQQGLRYTSTAEHVAIRSKLQYRLELAQGAVGSVQIPVVEVDELPEGYDRS
In the case of B1, the binding result in assay [1] and in assay [2] was “binds” in each case.

B2: Rvb1, recombinant (natural protein)
chain: MVAISEVKENPGVNSSNSGAVTRTAAHTHIKGLGLDESGVAKRVEGGFVGQIEAREACGVIVDLIKAKKMSGRAILLAGGPSTGKTALALAISQELGPKVPFCPLVGSELYSVEVKKTETLMENFRRAIGLRIKETKEVYEGEVTELTPEDAENPLGGYGKTISHVIVGLKSAKGTKTLRLDPTIYESIQREKVSIGDVIYIEANTGAVKRVGRSDAYATEFDLETEEYVPLPKGEVHKKKEIVQDVTLHDLDVANARPQGGQDVISMMGQLLKPKKTEITEKLRQEVNKVVAKYIDQGVAELIPGVLFIDEVNMLDIEIFTYLNKALESNIAPVVVLASNRGMTTVRGTEDVISPHGVPPDLIDRLLIVRTLPYDKDEIRTIIERRATVERLQVESSALDLLATMGTETSLRYALQLLAPCGILAQTSNRKEIVVNDVNEAKLLFLDAKRSTKILETSANYL
Turning to B2, the binding result in the assay with Rvb2, recombinant is listed as “binds”.

B3: Sti1 TPR2a domain (residues 260-386) (domain or fragment)
chain: IEADKEKAEGNKFYKARQFDEAIEHYNKAWELHKDITYLNNRAAAEYEKGEYETAISTLNDAVEQGREMRADYKVISKSFARIGNAYHKLGDLKKTIEYYQKSLTEHRTADILTKLRNAEKELKKAE
With B3, the binding result in assay [2] is recorded as “binds”.

The record behind these values is publication PMC2234237 (The Journal of Cell Biology, 2008).
